Source: article PMC4502523

How the values were obtained:
[1] = tested on: CSc1ccc(CC(C)N)cc1; experiment: cells, lysate or membranes
[2] = tested on: CC(N)Cc1ccc(Cl)cc1; experiment: cells, lysate or membranes

human SERT (hSERT) (Homo sapiens) showed a Km [1] of 6.1 ± 2.3 µM and a Km [2] of 3.3 ± 0.9 µM.
